Measurements reported in the nanobody polyreactivity screen of Harvey et al. (2022).

assay: yeast display, Sf9 membrane polyspecificity reagent, FACS + sequencing; frameworks hold sequencing errors
In short: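 Nanobodies from a synthetic yeast display library (Saccharomyces cerevisiae BJ5465), induced 36–48 hours with galactose, were stained 1 hour at 4 °C with 10% biotinylated, detergent-solubilized Sf9 membrane reagent, enriched on streptavidin microbeads, then FACS-sorted. Anti-HA (expression) and streptavidin (reagent binding) fluorescence set low and high (top ~1%) gates. Polyreactivity labels come from the gate of origin. Genes were colony-PCR amplified, MiSeq 2 × 250 sequenced and filtered by CDR length.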

Sequence	polyreactivity (PSR sort gate)
QVQLVESGGGLVQAGGSLRLSCAASGLIFARNVMGWYRQAPGKERELVAAISWSSGSTYYADSVKGRFTISRDNAKNTVSLQMNTLKQEDTAVYYCAARKIKSSQYFPTLYYYWGQGTQVTVSS	high polyreactivity
QVQLVESGGGLVQAGGSLRLSCAASGLIFASYAMGWYRQAPGKERELVATITVGGSTYYADSVKGRFTISRDNPKNTVYLQMISLKPEDTAVYYCNVGESVPWYEWGALWFSFDYWGQGTQVSVSS	high polyreactivity
QVQLVESGGGLVQAGGSLRLSCAASGLIFATYAMGWSRQAPGKERELVAAISYRGSRTYYADSVKGRFTISRDNAMTTVYLQMNILKPEDTGVYYCAAVYRTYGIGPNNYWGQGTQVTVSS	high polyreactivity
QVQLVESGGGLVQAGGSLRLSCAASGLIFDKYAMGWYRQAPGKERELVAAITRSSGTTYYADSVKGRFTISRDNAKNTVYLQLNSLKPEDTAVYYCAARFIWGYWGVGYYYWGLGTQVTVSS	low polyreactivity
QVQLVESGGGLVQAGGSLRLSCAASGLIFDRYPMGWYRQAPGKERELVAAINRSGGTTYYADSVKGRFTISRDNAKNTVYLQMNSLKPEDTAVYYCAARWQRYRSGTGDYWGQGTQVTVSS	high polyreactivity
QVQLVESGGGLVQAGGSLRLSCAASGLIFDWYAMGWYRPAPGKERELVADISNSGGSTNYADSVKGRFTISRDSAFNTVYLQMNSLKPEDTEVYYCAVDYYYPTLTIGYYYWGQVTQVTVSS	low polyreactivity
QVQLVESGGGLVQAGGSLRLSCAASGLIFEGYAMGWYRQAPGKERELVAAISSAGSTYYADSVKGRFTISRDNAKNTVYLQMNSLKPEDTAVYYCNARRRRLVSYYYWGQGTQVTVSS	high polyreactivity
QVQLVESGGGLVQAGGSLRLSCAASGLIFENNAMGWYRQAPGKERELVAAITKGGGSTYYADSVKGRFTISRDNAMNTVYLQMNSLKPEDTAVYYCAKVHPWHRYWQYWYDYWGQGTQVTVSS	low polyreactivity
QVQLVESGGGLVQAGGSLRLSCAASGLIFFYYAMGWYRQAPGKERELVATINLNGGSTYYADSVKGRFTISRDNAKNSVYLQMNSLKPEDTAGYYCAAAGTKYYARYYYWGQGTQVTVSS	high polyreactivity
QVQLVESGGGLVQAGGSLRLSCAASGLIFGFYTMGWYRQAPGKERELVAVISSSGGSTYYADSVKGRFTISRDNAKNTVYLQMNSLKPEDTAVYYCAARAYPVRYRRRDYWGQGTQVTVSS	high polyreactivity
QVQLVESGGGLVQAGGSLRLSCAASGLIFGGNAMGWYRQAPGKERELVAAISRTGGRTYYADSVKGRFTISRDNAKNTVFLQMNSLKPEDTAVYYCNAATSYYTYTYGYWGQGTQVTVSS	high polyreactivity
QVQLVESGGGLVQAGGSLRLSCAASGLIFGRYAMGWYRQAPGKERELVAAISSSGVRTYYADSVKGRFTISRDNAKNTVYLQMNSLKPEDTAVSYCAAAYWSSREDTVIKSYYWGQGTQVTVSS	high polyreactivity
QVQLVESGGGLVQAGGSLRLSCAASGLIFGRYAMGWYRQAPGKERELVAAISSSGVRTYYADSVKGRFTISRDNAKNTVYLQMNSLKPEDTAVYYCAAAYWSSREDTVIKRYYWGQGTQVTVSS	high polyreactivity
QVQLVESGGGLVQAGGSLRLSCAASGLIFGTYAMGWYRQAPGKERELVATINSSGGSTYYADSVKGRFTISRDNAKNTVYLQMNSLKPEDTAVYYCNTRRYDAYYDYDYWGQGTQVTVSS	low polyreactivity
QVQLVESGGGLVQAGGSLRLSCAASGLIFGVNAMGWYRQAPGKERELVAAISWSGSSTNYADSVKGRFTISRDNAKNTVYLQMNSLKPEDTAVYYCATDQGYRYLKIYVYGDAFDYWGQGTQVTVSS	low polyreactivity
QVQLVESGGGLVQAGGSLRLSCAASGLIFGVNDMGWYRQAPGKERELVAAITSRGGSTYYADSVKGRFTISRDNAKNTVYLQMNSLKPEDTAVYYCAAKYAYYEPYSWRPQRTYNYWGQGTQVTVSS	high polyreactivity
QVQLVESGGGLVQAGGSLRLSCAASGLIFGWNAMGWYRQAPGKERELVAAISSGGSTNYADSVKGRFTISRDNAKNTVYLQMNRLKPEDNAVYYCATRNGYSGTYGYWGQGTQVTVSS	low polyreactivity
QVQLVESGGGLVQAGGSLRLSCAASGLIFHQYAMGWYRQAPGKERELVAAITRSGTRTYYADSVKGRFTISRDNAKNTVYLQMNSLKPEDTAVYYCNKALRTYPLFYYWGQGTQVTVSS	high polyreactivity
QVQLVESGGGLVQAGGSLRLSCAASGLIFIHNTMRWYRQAPGKERELVAAISWSGASTYYADSVKGRFTISRDNAKNTVYLQMNSLKPEDTAVYYCNAGYRYSIYDYWGQGTQVTVSS	low polyreactivity
QVQLVESGGGLVQAGGSLRLSCAASGLIFISYAMGWYRQAPGKERELVAAITRSAGTTYYADSVKGRFTISRDNAKNTVYLQMNSLKPEDTAVYYCNALYPITPEDYWGQGTQVTVSS	low polyreactivity
QVQLVESGGGLVQAGGSLRLSCAASGLIFKRYGMGWYRQAPGKERELVAAISRSGGNTYYADSVKGRFTISRDNAKNTVYLQMNSLKPEDTAVYYCAATATYTYSDVDYWGQGTQVTVSS	high polyreactivity
QVQLVESGGGLVQAGGSLRLSCAASGLIFKSNAMGWYRPAPGKERELVAAITRTGGSTYYADSVKGRFTISRDNAKNTVYLQMNSLKPEDTAVYYCAKVVGRWRSSWELDYWGQGTQVTVSS	high polyreactivity
QVQLVESGGGLVQAGGSLRLSCAASGLIFKTYAIGWYRLAPGNERELVAAISWSGGGNTYYADSVKGRFTISRDNAKNTVYLQMNSLKPEDTAVYYCNAPRFVSYDYWGQGTQVTVSS	high polyreactivity
QVQLVESGGGLVQAGGSLRLSCAASGLIFKVYAMGWYRQAPGKERELVAAITYSGGSTDYADSVKGRFTISRDNAKNTVYLQMNSLKPEDTAVYYCNVEKVGHVNSYGYDYWGQGTQVTVSS	low polyreactivity
QVQLVESGGGLVQAGGSLRLSCAASGLIFKYKAMGWYRQAPGKERELVAAISTSGGSTYYADSVKGRFTISRDNAKNTVYLQMNSLKPEDTAVYYCNAVAGRPFRYYYWGQGTQVTVSS	high polyreactivity
QVQLVESGGGLVQAGGSLRLSCAASGLIFKYNAMGWYRQAPGKERELVADINRSGGSTYYADSVKGRFTISRDNAKNTVYLQMNSLKPEDTAVYYCAAERVSLYWVIFGYWGQGTQVTVSS	low polyreactivity
QVQLVESGGGLVQAGGSLRLSCAASGLIFKYYAMGWYREAPGKERELVATITRGGGSTYYADSVKGRFTISRDNAKNTVYLQMNSLKPEDTAVYYCAADYWYVYPRYNPGDYWGQGTQVTVSS	high polyreactivity
QVQLVESGGGLVQAGGSLRLSCAASGLIFLDYAMGWNRQAPWKERELVAAITGRGGSTYYADSVKGRFTISRDNAKNTVYLQMNSLKPDDTAVYDCAAQYSYPTPYRTYEYDYWGQGTQVTVSS	high polyreactivity
QVQLVESGGGLVQAGGSLRLSCAASGLIFLEYAMGWYRQAPGKERELLAAISTSGGSTYYADSVKGRFTISRDNAKNTVYLQMNSLKPEDTAVYYCAAEPVYNYYFHDGDYWGQGTQVTVSS	low polyreactivity
QVQLVESGGGLVQAGGSLRLSCAASGLIFLPYAMGWYRQAPGKERELVAAIRWSDDSTYYADSVKGRFTILRDNAKNTVYFQMNCLKPEDTAVYYCNAYVYRPSYIFNYYYEYDYWGQGTQVTVSS	high polyreactivity
